Where two headings read alike, the source gives them in different places.
B1: TM2-14-25 encoded by Tm2-14-25 (receptor)
chain: MAEILLTSVINKSVEIAGNLLIQEGKRLYWLKEDIDWLQREMRHIRSYVDNAKAKEAGGDSRVKNLLKDIQELAGDVEDLLDDFLPKIQQSNKFNYCLKRSSFADEFAMEIEKIKRRVVDIDRIRKTYNIIDTDNNNDDCVLLDRRRLFLHADETEIIGLDDDFNMLQAKLLNQDLHYGVVSIVGMPGLGKTTLAKKLYRLIRDQFECSGLVYVSQQPRASEILLDIAKQIGLTEQKMKENLEDNLRSLLKIKRYVILLDDIWDVEIWDDLKLVLPECDSKVGSRMIITSRNSNVGRYIGGESSLHALQPLESEKSFELFTKKIFNFDDNNSWANASPDLVNIGRNIVGRCGGIPLAIVVTAGMLRARERTEHAWNRVLESMGHKVQDGCAKVLALSYNDLPIASRPCFLYFGLYPEDHEIRAFDLINMWIAEKFIVVNSGNRREAEDLAEDVLNDLVSRNLIQLAKRTYNGRISSCRIHDLLHSLCVDLAKESNFFHTAHDAFGDPGNVARLRRITFYSDNVMIEFFRSNPKLEKLRVLFCFAKDPSIFSHMAYFDFKLLHTLVVVMSQSFQAYVTIPSKFGNMTCLRYLRLEGNICGKLPNSIVKLTRLETIDIDRRSLIQPPSGVWESKHLRHLCYRDYGQACNSCFSISSLYPNIYSLHPNNLQTLMWIPDKFFEPRLLHRLINLRKLGILGVSNSTVKMLSIFSPVLKALEVLKLSFSSDPSEQIKLSSYPHIAKLHLNVNRTMALNSQSFPPNLIKLTLAYFSVDRYILAVLKTFPKLRKLKMFICKYNEEKMDLSGEANGYSFPQLEVLHIHSPNGLSEVTCTDDVSMPKLKKLLLTGFHRRISLSERLKKLSK
B2: TM-2-2 variant pJL 511_12 (767 D, 848 R) (receptor)
chain: MAEILLTSVINKSVEIAGNLLIQEGKRLYWLKEDIDWLQREMRHIRSYVDNAKAKEAGGDSRVKNLLKDIQELAGDVEDLLDDFLPKIQQSNKFNYCLKRSSFADEFAMEIEKIKRRVVDIDRIRKTYNIIDTDNNNDDCVLLDRRRLFLHADETEIIGLDDDFNMLQAKLLNQDLHYGVVSIVGMPGLGKTTLAKKLYRLIRDQFECSGLVYVSQQPRASEILLDIAKQIGLTEQKMKENLEDNLRSLLKIKRYVILLDDIWDVEIWDDLKLVLPECDSKVGSRMIITSRNSNVGRYIGGESSLHALQPLESEKSFELFTKKIFNFDDNNSWANASPDLVNIGRNIVGRCGGIPLAIVVTAGMLRARERTEHAWNRVLESMGHKVQDGCAKVLALSYNDLPIASRPCFLYFGLYPEDHEIRAFDLINMWIAEKFIVVNSGNRREAEDLAEDVLNDLVSRNLIQLAKRTYNGRISSCRIHDLLHSLCVDLAKESNFFHTAHDAFGDPGNVARLRRITFYSDNVMIEFFRSNPKLEKLRVLFCFAKDPSIFSHMAYFDFKLLHTLVVVMSQSFQAYVTIPSKFGNMTCLRYLRLEGNICGKLPNSIVKLTRLETIDIDRRSLIQPPSGVWESKHLRHLCYRDYGQACNSCFSISSFYPNIYSLHPNNLQTLMWIPDKFFEPRLLHRLINLRKLGILGVSNSTVKMLSIFSPVLKALEVLKLSFSSDPSEQIKLSSYPHIAKLHLNVNRTMALNSQSFPPNLIKLTLADFSVDRYILAVLKTFPKLRKLKMFICKYNEEKMDLSGEANGYSFPQLEVLHIHSPNGLSEVTCTDDVSMPKLKKLLLTGFHRRISLSERLKKLSK
B3: TM-2-2 variant pJL 466 (F655L) (receptor)
chain: MAEILLTSVINKSVEIAGNLLIQEGKRLYWLKEDIDWLQREMRHIRSYVDNAKAKEAGGDSRVKNLLKDIQELAGDVEDLLDDFLPKIQQSNKFNYCLKRSSFADEFAMEIEKIKRRVVDIDRIRKTYNIIDTDNNNDDCVLLDRRRLFLHADETEIIGLDDDFNMLQAKLLNQDLHYGVVSIVGMPGLGKTTLAKKLYRLIRDQFECSGLVYVSQQPRASEILLDIAKQIGLTEQKMKENLEDNLRSLLKIKRYVILLDDIWDVEIWDDLKLVLPECDSKVGSRMIITSRNSNVGRYIGGESSLHALQPLESEKSFELFTKKIFNFDDNNSWANASPDLVNIGRNIVGRCGGIPLAIVVTAGMLRARERTEHAWNRVLESMGHKVQDGCAKVLALSYNDLPIASRPCFLYFGLYPEDHEIRAFDLINMWIAEKFIVVNSGNRREAEDLAEDVLNDLVSRNLIQLAKRTYNGRISSCRIHDLLHSLCVDLAKESNFFHTAHDAFGDPGNVARLRRITFYSDNVMIEFFRSNPKLEKLRVLFCFAKDPSIFSHMAYFDFKLLHTLVVVMSQSFQAYVTIPSKFGNMTCLRYLRLEGNICGKLPNSIVKLTRLETIDIDRRSLIQPPSGVWESKHLRHLCYRDYGQACNSCFSISSLYPNIYSLHPNNLQTLMWIPDKFFEPRLLHRLINLRKLGILGVSNSTVKMLSIFSPVLKALEVLKLSFSSDPSEQIKLSSYPHIAKLHLNVNRTMALNSQSFPPNLIKLTLAYFSVDRYILAVLKTFPKLRKLKMFICKYNEEKMDLSGEANGYSFPQLEVLHIHSPNGLSEVTCTDDVSMPKLKKLLLTGFHCRISLSERLKKLSK
B4: TM-2-2 variant pJL 511_8 (767 D, 769 A, 848 R) (receptor)
chain: MAEILLTSVINKSVEIAGNLLIQEGKRLYWLKEDIDWLQREMRHIRSYVDNAKAKEAGGDSRVKNLLKDIQELAGDVEDLLDDFLPKIQQSNKFNYCLKRSSFADEFAMEIEKIKRRVVDIDRIRKTYNIIDTDNNNDDCVLLDRRRLFLHADETEIIGLDDDFNMLQAKLLNQDLHYGVVSIVGMPGLGKTTLAKKLYRLIRDQFECSGLVYVSQQPRASEILLDIAKQIGLTEQKMKENLEDNLRSLLKIKRYVILLDDIWDVEIWDDLKLVLPECDSKVGSRMIITSRNSNVGRYIGGESSLHALQPLESEKSFELFTKKIFNFDDNNSWANASPDLVNIGRNIVGRCGGIPLAIVVTAGMLRARERTEHAWNRVLESMGHKVQDGCAKVLALSYNDLPIASRPCFLYFGLYPEDHEIRAFDLINMWIAEKFIVVNSGNRREAEDLAEDVLNDLVSRNLIQLAKRTYNGRISSCRIHDLLHSLCVDLAKESNFFHTAHDAFGDPGNVARLRRITFYSDNVMIEFFRSNPKLEKLRVLFCFAKDPSIFSHMAYFDFKLLHTLVVVMSQSFQAYVTIPSKFGNMTCLRYLRLEGNICGKLPNSIVKLTRLETIDIDRRSLIQPPSGVWESKHLRHLCYRDYGQACNSCFSISSFYPNIYSLHPNNLQTLMWIPDKFFEPRLLHRLINLRKLGILGVSNSTVKMLSIFSPVLKALEVLKLSFSSDPSEQIKLSSYPHIAKLHLNVNRTMALNSQSFPPNLIKLTLADFAVDRYILAVLKTFPKLRKLKMFICKYNEEKMDLSGEANGYSFPQLEVLHIHSPNGLSEVTCTDDVSMPKLKKLLLTGFHRRISLSERLKKLSK
B5: TM2-467 encoded by Tm2-467 (receptor)
chain: MAEILLTSVINKSVEIAGNLLIQEGKRLYWLKEDIDWLQREMRHIRSYVDNAKAKEAGGDSRVKNLLKDIQELAGDVEDLLDDFLPKIQQSNKFNYCLKRSSFADEFAMEIEKIKRRVVDIDRIRKTYNIIDTDNNNDDCVLLDRRRLFLHADETEIIGLDDDFNMLQAKLLNQDLHYGVVSIVGMPGLGKTTLAKKLYRLIRDQFECSGLVYVSQQPRASEILLDIAKQIGLTEQKMKENLEDNLRSLLKIKRYVILLDDIWDVEIWDDLKLVLPECDSKVGSRMIITSRNSNVGRYIGGESSLHALQPLESEKSFELFTKKIFNFDDNNSWANASPDLVNIGRNIVGRCGGIPLAIVVTAGMLRARERTEHAWNRVLESMGHKVQDGCAKVLALSYNDLPIASRPCFLYFGLYPEDHEIRAFDLINMWIAEKFIVVNSGNRREAEDLAEDVLNDLVSRNLIQLAKRTYNGRISSCRIHDLLHSLCVDLAKESNFFHTAHDAFGDPGNVARLRRITFYSDNVMIEFFRSNPKLEKLRVLFCFAKDPSIFSHMAYFDFKLLHTLVVVMSQSFQAYVTIPSKFGNMTCLRYLRLEGNICGKLPNSIVKLTRLETIDIDRRSLIQPPSGVWESKHLRHLCYRDYGQACNSCFSISSFYPNIYSLHPNNLQTLMWIPDKFFEPRLLHRLINLRKLGILGVSNSTVKMLSIFSPVLKALEVLKLSFSSDPSEQIKLSSYPHIAKLHLNVNRTMALNSQSFPPNLIKLTLAYFSVDRYILAVLKTFPKLRKLKMFICKYNEEKMDLSGEANGYSFPQLEVLHIHSPNGLSEVTCTDDVSMPKLKKLLLTGFHRRISLSERLKKLSK

What was measured:
Experiment in all cases: cell-based or functional assay
[1] = biological target: T1, Movement Protein of ToBRFV (Tomato Brown Rugose Fruit Virus …, UniProt A0A0S2SZW1 1-266)
T1 sequence: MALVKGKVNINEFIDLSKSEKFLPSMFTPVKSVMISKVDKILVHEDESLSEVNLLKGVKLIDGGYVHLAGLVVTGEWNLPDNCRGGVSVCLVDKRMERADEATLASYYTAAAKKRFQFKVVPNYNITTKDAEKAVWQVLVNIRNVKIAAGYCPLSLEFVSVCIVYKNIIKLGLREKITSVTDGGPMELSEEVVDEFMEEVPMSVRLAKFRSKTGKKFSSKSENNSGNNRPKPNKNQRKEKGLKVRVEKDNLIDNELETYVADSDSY

[2] = biological target: T1, Movement Protein of ToBRFV; remark: listed apart in the source
[3] = biological target: T1, Movement Protein of ToBRFV; remark: listed apart in the source
[4] = biological target: T1, Movement Protein of ToBRFV; remark: listed apart in the source

Binder | HR when expressed with MP Rugose [1] [HR scale 0-4] | HR to MP Rugose [2] [HR scale 0-4] | HR to MP Rugose [3] [HR scale 0-4] | HR to MP Rugose [4] [HR scale 0-4]
B1 | 4 | 3 | 4 | –
B2 | – | – | – | 0
B3 | < 1 | – | – | –
B4 | – | – | – | 0
B5 | 4 | – | – | –
